From patent publication US12215162B2, “BAFF-R targeted chimeric antigen receptor-modified T-cells and uses thereof” (CITY OF HOPE, priority 2016, dated 2025)

B1: Humanized HC1 + LC2: humanized C90 variant, heavy chain variant 1 with light chain variant 2 (antibody, V domains shown)
VH: QVQLQESGPGLVKPSQTLSLTCTVSGDSITSGYWNWIRQHPGKGLEYIGYISYSGSTYYNPSLKSRVTISRDTSKNQFSLKLSSVTAADTAVYYCASPNYPFYAMDYWGQGTLVTVSS
VL: DIVLTQSPATLSLSPGERATLSCRASESVDNYGISFMNWFQQKPGQAPRLLIYAASNRATGIPARFSGSGSGTDFTLTISSLEPEDFAVYYCQQSKEVPWTFGGGTKVEIKRTV
B2: Humanized HC1 + LC1 (antibody, V domains shown)
VH: QVQLQESGPGLVKPSQTLSLTCTVSGDSITSGYWNWIRQHPGKGLEYIGYISYSGSTYYNPSLKSRVTISRDTSKNQFSLKLSSVTAADTAVYYCASPNYPFYAMDYWGQGTLVTVSS
VL: EIVLTQSPATLSLSPGERATLSCRASESVDNYGISFLNWFQQKPGQAPRLLIYAASNRATGIPARFSGSGSGTDFTLTISSLEPEDFAVYYCQQSKEVPWTFGGGTKVEIKRTV
B3: Humanized HC3 + LC3: humanized C90 variant, heavy chain variant 3 with light chain variant 3 (antibody, V domains shown)
VH: EVQLQESGPGLVKPSETLSLTCSVSGDSITSGYWNWIRQPPGKGLEYIGYISYSGSTYYNPSLKSRVTISRDTSKNQYSLRLSSVTAADTALYYCASPNYPFYAMDYWGQGTRVTVSS
VL: DIVMTQSPSSLSASVGDRVTITCRASESVDNYGISFMNWFQQKPGKAPKLLIYAASNLGSGVPSRFSGSGSGTDFTLTISSLQPEDFATYYCQQSKEVPWTFGQGTKVEIKRTV
B4: Humanized HC3 + LC2: humanized C90 variant, heavy chain variant 3 with light chain variant 2 (antibody, V domains shown)
VH: EVQLQESGPGLVKPSETLSLTCSVSGDSITSGYWNWIRQPPGKGLEYIGYISYSGSTYYNPSLKSRVTISRDTSKNQYSLRLSSVTAADTALYYCASPNYPFYAMDYWGQGTRVTVSS
VL: DIVLTQSPATLSLSPGERATLSCRASESVDNYGISFMNWFQQKPGQAPRLLIYAASNRATGIPARFSGSGSGTDFTLTISSLEPEDFAVYYCQQSKEVPWTFGGGTKVEIKRTV
B5: Humanized HC1 + LC3: humanized C90 variant, heavy chain variant 1 with light chain variant 3 (antibody, V domains shown)
VH: QVQLQESGPGLVKPSQTLSLTCTVSGDSITSGYWNWIRQHPGKGLEYIGYISYSGSTYYNPSLKSRVTISRDTSKNQFSLKLSSVTAADTAVYYCASPNYPFYAMDYWGQGTLVTVSS
VL: DIVMTQSPSSLSASVGDRVTITCRASESVDNYGISFMNWFQQKPGKAPKLLIYAASNLGSGVPSRFSGSGSGTDFTLTISSLQPEDFATYYCQQSKEVPWTFGQGTKVEIKRTV
B6: Humanized HC3 + LC1 (antibody, V domains shown)
VH: EVQLQESGPGLVKPSETLSLTCSVSGDSITSGYWNWIRQPPGKGLEYIGYISYSGSTYYNPSLKSRVTISRDTSKNQYSLRLSSVTAADTALYYCASPNYPFYAMDYWGQGTRVTVSS
VL: EIVLTQSPATLSLSPGERATLSCRASESVDNYGISFLNWFQQKPGQAPRLLIYAASNRATGIPARFSGSGSGTDFTLTISSLEPEDFAVYYCQQSKEVPWTFGGGTKVEIKRTV
B7: Humanized HC2 + LC1 (antibody, V domains shown)
VH: EVQLQESGPGLVKPSQTLSLTCTVSGDSITSGYWNWIRQHPGKGLEYIGYISYSGSTYYNPSLKSRVTISRDTSKNQYSLKLSSVTAADTAVYYCASPNYPFYAMDYWGQGTLVTVSS
VL: EIVLTQSPATLSLSPGERATLSCRASESVDNYGISFLNWFQQKPGQAPRLLIYAASNRATGIPARFSGSGSGTDFTLTISSLEPEDFAVYYCQQSKEVPWTFGGGTKVEIKRTV

target: T1, recombinant extracellular domain of human BAFF-R (Homo sapiens, UniProt Q96RJ3); test: Biacore analysis of binding affinity of humanized BAFF-R antibody variants
T1 construct: The antigen was commercial, recombinant extracellular domain of human BAFF-R; purchased
Text: The chimeric antibody, clone 90, was humanized while retaining its binding specificity and cytotoxic effects. Through computational analysis of the CDRs and predicted structure, three variants of the heavy and three variants of the light chain were produced with varying degrees of likeness to human antibodies. A total of nine combinational variants was constructed from the humanized heavy and light chains.
The chimeric anti-BAFF-R antibody C90 was humanized with several variants. The humanization process took into consideration and analysis of the variable region and specifically the CDRs of the chimeric antibody. From there, three variants for each heavy and light chain was developed with varying degrees of human-likeness ranging from 1 the most human to 3 the most conservative to the chimeric. The variants were combined to produce 9 variants. Biacore analysis was performed on each variant as well as the chimeric parental C90 to determine their equilibrium dissociation constant KD. The antigen was commercial, recombinant extracellular domain of human BAFF-R.

B1 and B2 are within 1.5-fold of each other in kdis: 0.0023 s⁻¹ for the first, 0.0024 s⁻¹ for the second.

First: B3
Second: B4
The kdis of the first is 1.6-fold lower: 0.0023 s⁻¹ for the first, 0.0037 s⁻¹ for the second.

B5 and B6 are within 1.5-fold of each other in kdis: 0.0021 s⁻¹ for the first, 0.0031 s⁻¹ for the second.

Work on B7 yielded a kdis of 0.002 s⁻¹.

B1 and B2 are within 1.5-fold of each other in kon: 620000 M⁻¹ s⁻¹ for the first, 610000 M⁻¹ s⁻¹ for the second.

First: B3
Second: B4
The kon of the first is 1.8-fold lower: 680000 M⁻¹ s⁻¹ for the first, 1.2e+06 M⁻¹ s⁻¹ for the second.

Compared with B5, B6 is 2-fold higher in kon: 410000 M⁻¹ s⁻¹ for the first, 820000 M⁻¹ s⁻¹ for the second.

With B7 the kon was 770000 M⁻¹ s⁻¹.
